Biological target: AchR (Homo sapiens, UniProt P02708)
Assay: ELISA of screened peptide phages on AchR versus streptavidin (OD450)
Assay type: binding
Details: phage ELISA, absorbance at 450 nm, 5 μg/ml AchR; 4th and 5th round biopanning phages
Protocol: The output phages for the 4th and 5th rounds of biopanning in Example 13-1 were inoculated to E. coli, and plated on the agar plates so as to form 100-200 plaques per plate. The plaques were inoculated on 1 ml of an SB liquid medium containing 50 μg/ml of ampicillin by using a sterile tip, and cultured with shaking at 37° C. for 5 hours, followed by the addition of 30 μl of helper phages, and then cultured at 37° C. and 200 rpm for one day. The culture was centrifuged at 12,000 rpm for 2 minutes to collect supernatant, and 2% BSA was added to the supernatant, and used for phage screening.
In a 96-well ELISA plate, 5 μg/ml AchR or streptavidin was added at 50 μl per well, and left at 4° C. overnight. The next day, the solution in each well was discarded, followed by the addition of 2% BSA, and then blocked at room temperature for 2 hours. After the solution was all discarded, the wells were washed three times with Tris (20 mM, pH7). In addition, 100 μl of each of the phage solutions obtained from the above-prepared plaques was dispensed into wells and left at 30° C. for 1 hour. After the solution in the wells was all discarded, the wells were washed three times with Tris (20 mM, pH 7), and then the HRP-conjugated anti-M13 antibody diluted 1:2,000 was added at 100 μl per well, followed by culture at 30° C. for 1 hour. After the wells were washed three times with Tris (20 mM, pH7), 100 μl of tetramethylbenzidine was added to each well to induce a color development reaction, and then the reaction was stopped by the addition of 100 μl of 1M H2SO4, and the absorbance at 450 nm (OD450) was measured. The measured absorbance was converted into a ratio of AchR absorbance to streptavidin absorbance (AchR signal/streptavidin signal), and the results are shown in FIGS. 14 to 16.

AchR, sequence (P02708 21-457): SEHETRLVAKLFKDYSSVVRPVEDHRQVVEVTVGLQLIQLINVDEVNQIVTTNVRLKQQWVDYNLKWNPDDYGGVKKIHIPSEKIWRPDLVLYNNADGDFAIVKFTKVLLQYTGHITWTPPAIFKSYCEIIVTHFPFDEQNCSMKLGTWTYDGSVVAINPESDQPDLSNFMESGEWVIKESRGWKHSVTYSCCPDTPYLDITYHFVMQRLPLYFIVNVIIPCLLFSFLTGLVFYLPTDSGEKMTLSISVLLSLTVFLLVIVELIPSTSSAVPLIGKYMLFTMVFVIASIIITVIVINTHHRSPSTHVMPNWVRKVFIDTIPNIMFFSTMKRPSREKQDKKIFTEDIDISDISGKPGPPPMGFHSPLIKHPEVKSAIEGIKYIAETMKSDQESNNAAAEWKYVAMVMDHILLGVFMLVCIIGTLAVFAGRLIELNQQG

Sequence	OD
GGGRKKRRQRR [Peptide L2-202, reference compound]	0.314
GGGRKKRRQRRRGG [Peptide L3-201, reference compound]	0.315
GGGRRRRRRRR [Peptide L2-204, reference compound]	0.311
GGRKKRRQRRR [Peptide L2-203, reference compound]	0.302
GGRKKRRQRRRGGG [Peptide L3-202, reference compound]	0.301
KAKKIRQR [Peptide L1-1]	0.693
KAKRDYLR [Peptide L1-145]	0.54
KAKRGHFK [Peptide L1-68]	0.55
KARKNSIR [Peptide L1-170]	0.642
KARKQEVR [Peptide L1-188]	0.618
KARRNSLK [Peptide L1-175]	0.621
KARRQEDK [Peptide L1-14]	0.755
KARRVGTK [Peptide L1-143]	0.416
KCKKDNDK [Peptide L1-184]	0.593
KCKKMTER [Peptide L1-37]	0.524
KCRKTMGR [Peptide L1-123]	0.409
KDKKMPQR [Peptide L1-185]	0.55
KDKKQWGR [Peptide L1-114]	0.42
KDKKTPCK [Peptide L1-193]	0.588
KDKRPECK [Peptide L1-133]	0.504

Sequence	OD
KDKRWANR [Peptide L1-77]	0.636
KDRKGVYK [Peptide L1-111]	0.608
KDRKVNSR [Peptide L1-97]	0.546
KEKKLVWK [Peptide L1-174]	0.596
KEKRAVHK [Peptide L1-48]	0.519
KEKRLYAR [Peptide L1-149]	0.34
KERKASAK [Peptide L1-63]	0.618
KERKGAVR [Peptide L1-100]	0.737
KERKHEAK [Peptide L1-62]	0.633
KERKLWWK [Peptide L1-171]	0.583
KFKKHGVK [Peptide L1-21]	0.65
KFKKSAPR [Peptide L1-136]	0.392
KFKRTEGR [Peptide L1-19]	0.575
KFRKGPYR [Peptide L1-135]	0.479
KFRKHVCK [Peptide L1-116]	0.492
KFRRQSTR [Peptide L1-139]	0.456
KGKKLSQR [Peptide L1-75]	0.581
KGKKYYQK [Peptide L1-105]	0.507
KGKRDSNK [Peptide L1-51]	0.66
KGKRTGCK [Peptide L1-126]	0.362

Sequence	OD
KHKKLNQR [Peptide L1-7]	0.68
KHKKQNVR [Peptide L1-18]	0.627
KHKRTAQR [Peptide L1-78]	0.642
KIKKAARR [Peptide L1-35]	0.556
KIKKLSQK [Peptide L1-168]	0.588
KIKKYYWK [Peptide L1-129]	0.421
KIKRDLYK [Peptide L1-90]	0.439
KIKRNVFK [Peptide L1-160]	0.55
KIRRVTNK [Peptide L1-162]	0.668
KKRKGSAK [Peptide L1-2]	0.68
KKRKSLLR [Peptide L1-159]	0.593
KLKKFPVR [Peptide L1-4]	0.696
KLKRAMLK [Peptide L1-169]	0.636
KLKRRSRR [Peptide L1-16]	0.62
KLRKQKLR [Peptide L1-43]	0.601
KMRKFYSK [Peptide L1-189]	0.616
KMRKGWDK [Peptide L1-138]	0.373
KMRKHDVR [Peptide L1-74]	0.649
KMRRAQGR [Peptide L1-34]	0.634
KMRRIMYK [Peptide L1-64]	0.589

Source: patent US20260000597A1 (priority 2018, published 2026)
